T1: FcγRIIb (human, UniProt P31994 43-217)
T1 construct: extracellular domain; also called FcgRIIb; CD32B
T1 sequence (looked up): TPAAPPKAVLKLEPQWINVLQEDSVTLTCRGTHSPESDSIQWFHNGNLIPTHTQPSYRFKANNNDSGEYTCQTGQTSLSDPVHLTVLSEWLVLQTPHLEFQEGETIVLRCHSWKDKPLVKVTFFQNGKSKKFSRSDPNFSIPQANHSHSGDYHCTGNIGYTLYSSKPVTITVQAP

T2: FcγRIIb extracellular domain with C-terminal His tag (human, UniProt P31994 43-217)
T2 construct: extracellular domain; Soluble receptor expressed in FreeStyle293 cells, used as analyte in Biacore; also called FcgRIIb; 2b
T2 sequence (looked up): T1 sequence (looked up)

B1: GpH7-A5/GpH7-B3 variant P329_01G/GpL16-k0 (antibody, human IgG1, kappa)
heavy 1: not shown
heavy 2: not shown
light: DIVMTQSPLSLPVTPGEPASISCQASESLVHSNRNTYLHWYLQKPGQSPQLLIYKVSNRFSGVPDRFSGSGSGTDFTLKISRVEAEDVGVYYCSQNTHVPPTFGQGTKVEIERTVAAPSVFIFPPSDEQLKSGTASVVCLLNNFYPREAKVQWKVDNALQSGNSQESVTEQDSKDSTYSLSSTLTLSKADYEKHKVYACEVTHQGLSSPVTKSFNRGEC
notes: He Ab; mutation in the GpH7-B3 chain only; also called He Ab
B2: GpH7-A5/GpH7-B3 variant A327_19Q/GpL16-k0 (antibody, human IgG1, kappa)
heavy 1: not shown
heavy 2: not shown
light: B1 light
notes: as for B1
B3: GpH7-A5/GpH7-B3 variant A330_08L/GpL16-k0 (antibody, human IgG1, kappa)
heavy 1: not shown
heavy 2: not shown
light: B1 light
notes: as for B1
B4: GpH7-A5/GpH7-B3 variant A330_07I/GpL16-k0 (antibody, human IgG1, kappa)
heavy 1: not shown
heavy 2: not shown
light: B1 light
notes: as for B1
B5: GpH7-A5/GpH7-B3 variant A330_09D/GpL16-k0 (antibody, human IgG1, kappa)
heavy 1: not shown
heavy 2: not shown
light: B1 light
notes: as for B1
B6: GpH7-A5/GpH7-B3 variant S324_10E/GpL16-k0 (antibody, human IgG1, kappa)
heavy 1: not shown
heavy 2: not shown
light: B1 light
notes: Heterodimerized anti-glypican-3 IgG1; mutation in the GpH7-B3 chain only; also called He Ab
B7: GpH7-A5/GpH7-B3 variant A330_06M/GpL16-k0 (antibody, human IgG1, kappa)
heavy 1: not shown
heavy 2: not shown
light: B1 light
notes: as for B1
B8: GpH7-A5/GpH7-B3 variant E333_16H/GpL16-k0 (antibody, human IgG1, kappa)
heavy 1: not shown
heavy 2: not shown
light: B1 light
notes: as for B1
B9: GpH7-A5/GpH7-B3 variant Y296_20W/GpL16-k0 (antibody, human IgG1, kappa)
heavy 1: not shown
heavy 2: not shown
light: B1 light
notes: as for B6
B10: GpH7-A5/GpH7-B3 variant Y300_13S/GpL16-k0 (antibody, human IgG1, kappa)
heavy 1: not shown
heavy 2: not shown
light: B1 light
notes: as for B6
B11: GpH7-A5/GpH7-B3 variant S324_19Q/GpL16-k0 (antibody, human IgG1, kappa)
heavy 1: not shown
heavy 2: not shown
light: B1 light
notes: as for B6
B12: GpH7-A5/GpH7-B3 variant S324_11K/GpL16-k0 (antibody, human IgG1, kappa)
heavy 1: not shown
heavy 2: not shown
light: B1 light
notes: as for B6
B13: GpH7-A5/GpH7-B3 variant S324_16H/GpL16-k0 (antibody, human IgG1, kappa)
heavy 1: not shown
heavy 2: not shown
light: B1 light
notes: as for B6
B14: GpH7-A5/GpH7-B3 variant A330_16H/GpL16-k0 (antibody, human IgG1, kappa)
heavy 1: not shown
heavy 2: not shown
light: B1 light
notes: as for B1
B15: GpH7-A5/GpH7-B3 variant A330_13S/GpL16-k0 (antibody, human IgG1, kappa)
heavy 1: not shown
heavy 2: not shown
light: B1 light
notes: as for B1
B16: GpH7-A5/GpH7-B3 variant A327_16H/GpL16-k0 (antibody, human IgG1, kappa)
heavy 1: not shown
heavy 2: not shown
light: B1 light
notes: as for B1
B17: GpH7-A5/GpH7-B3 variant E333_11K/GpL16-k0 (antibody, human IgG1, kappa)
heavy 1: not shown
heavy 2: not shown
light: B1 light
notes: as for B1
B18: GpH7-A5/GpH7-B3 variant A330_20W/GpL16-k0 (antibody, human IgG1, kappa)
heavy 1: not shown
heavy 2: not shown
light: B1 light
notes: as for B1
B19: GpH7-A5/GpH7-B3 variant E333_13S/GpL16-k0 (antibody, human IgG1, kappa)
heavy 1: not shown
heavy 2: not shown
light: B1 light
notes: as for B1
B20: GpH7-A5/GpH7-B3 variant Y300_07I/GpL16-k0 (antibody, human IgG1, kappa)
heavy 1: not shown
heavy 2: not shown
light: B1 light
notes: as for B6
B21: GpH7-A5/GpH7-B3 variant E333_01G/GpL16-k0 (antibody, human IgG1, kappa)
heavy 1: not shown
heavy 2: not shown
light: B1 light
notes: as for B1
B22: GpH7-A5/GpH7-B3 variant S324_12R/GpL16-k0 (antibody, human IgG1, kappa)
heavy 1: not shown
heavy 2: not shown
light: B1 light
notes: as for B6
B23: GpH7-A5/GpH7-B3 variant Y300_14T/GpL16-k0 (antibody, human IgG1, kappa)
heavy 1: not shown
heavy 2: not shown
light: B1 light
notes: as for B6
B24: GpH7-A5/GpH7-B3 variant A330_14T/GpL16-k0 (antibody, human IgG1, kappa)
heavy 1: not shown
heavy 2: not shown
light: B1 light
notes: as for B1
B25: GpH7-A5/GpH7-B3 variant A327_20W/GpL16-k0 (antibody, human IgG1, kappa)
heavy 1: not shown
heavy 2: not shown
light: B1 light
notes: as for B1
B26: GpH7-A5/GpH7-B3 variant Y300_01G/GpL16-k0 (antibody, human IgG1, kappa)
heavy 1: not shown
heavy 2: not shown
light: B1 light
notes: as for B6
B27: GpH7-A5/GpH7-B3 variant A330_18N/GpL16-k0 (antibody, human IgG1, kappa)
heavy 1: not shown
heavy 2: not shown
light: B1 light
notes: as for B1
B28: GpH7-A5/GpH7-B3 variant A330_03V/GpL16-k0 (antibody, human IgG1, kappa)
heavy 1: not shown
heavy 2: not shown
light: B1 light
notes: as for B1
B29: GpH7-A5/GpH7-B3 variant E333_18N/GpL16-k0 (antibody, human IgG1, kappa)
heavy 1: not shown
heavy 2: not shown
light: B1 light
notes: as for B1
B30: GpH7-A5/GpH7-B3 variant A330_10E/GpL16-k0 (antibody, human IgG1, kappa)
heavy 1: not shown
heavy 2: not shown
light: B1 light
notes: as for B1
B31: GpH7-A5/GpH7-B3 variant E333_02A/GpL16-k0 (antibody, human IgG1, kappa)
heavy 1: not shown
heavy 2: not shown
light: B1 light
notes: as for B1
B32: GpH7-A5/GpH7-B3 variant Y300_08L/GpL16-k0 (antibody, human IgG1, kappa)
heavy 1: not shown
heavy 2: not shown
light: B1 light
notes: as for B6
B33: GpH7-A5/GpH7-B3 variant E333_12R/GpL16-k0 (antibody, human IgG1, kappa)
heavy 1: not shown
heavy 2: not shown
light: B1 light
notes: as for B1

Columns and labels:
FcγRIa [1] = target: T3, FcγRIa (human, UniProt P12314 16-292); assay: SPR (Biacore), captured antibody, soluble FcγR; relative to GpH7-A5/GpH7-B3/GpL16-k0 = 100
T3 construct: extracellular domain; also called FcgRI; CD64
T3 sequence (P12314 16-292): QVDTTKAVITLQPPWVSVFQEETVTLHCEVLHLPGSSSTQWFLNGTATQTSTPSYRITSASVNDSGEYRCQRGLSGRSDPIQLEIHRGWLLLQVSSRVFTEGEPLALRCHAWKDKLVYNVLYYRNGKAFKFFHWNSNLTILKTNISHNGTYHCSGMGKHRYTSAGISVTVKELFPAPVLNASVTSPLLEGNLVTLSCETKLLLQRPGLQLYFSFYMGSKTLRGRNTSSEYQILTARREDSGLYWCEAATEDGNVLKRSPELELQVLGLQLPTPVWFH
Procedure: (§1) The heterodimerized antibodies He Abs in which one of the H chains was introduced with an alteration were assayed for their binding activities to each activating FcγR and inhibitory FcγR according to the method described in Example 4. […] The activating FcγRs in FIGS. 26, 27, 28, and 29 are FcγRIa, FcγRIIa (R), FcγRIIa (H), and FcγRIIIa, respectively.
(§2) Analysis of interaction between objective antibody and the FcγR was carried out using Biacore T100 (GE Healthcare). HBS-EP+ (GE Healthcare) was used as the running buffer, and the measurement temperature was set to 25° C. Chips produced by immobilizing the antigen peptide by the amine coupling method to a Series S Sencor Chip CM5 (GE Healthcare), or alternatively, chips produced by allowing preliminarily biotinylated antigen peptides to interact with and immobilize onto a Series S Sensor Chip SA (certified) (GE Healthcare) were used. Antibodies of interest were captured onto an antigen peptide-immobilized chip, and allowed to interact to each FcγR diluted with running buffer. To regenerate and repeatedly use the chip, the antibodies captured on the chip were washed off by reacting 10 mM glycine-HCl, pH 1.5.

FcγRIIb = target: T1, FcγRIIb; assay: as above
Procedure: as §1, §2

FcγRIa [2] = target: T3, FcγRIa; assay: ratio of He/Con_1a to He/Con_2b (FcγRIa over FcγRIIb), SPR
Procedure: as §1, §2

[3] = target: T4, FcγRIIIa extracellular domain with C-terminal His tag (human, UniProt P08637 17-208); assay: SPR (Biacore); He/Con_3a divided by He/Con_2b (FcγRIIIa against FcγRIIb)
T4 construct: extracellular domain; also called FcgRIIIa; 3a
T4 sequence (P08637 17-208): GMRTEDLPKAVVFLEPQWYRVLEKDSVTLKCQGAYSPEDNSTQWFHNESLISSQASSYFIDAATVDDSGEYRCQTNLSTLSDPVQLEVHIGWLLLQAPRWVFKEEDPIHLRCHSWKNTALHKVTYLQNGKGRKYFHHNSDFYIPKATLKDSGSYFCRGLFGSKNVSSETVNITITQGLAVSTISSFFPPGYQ
In short: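 Antigen peptide was immobilized on a CM5 chip by amine coupling or on an SA chip via biotin; test antibody was then captured, FcγR in running buffer injected, and the chip stripped with 10 mM glycine-HCl, pH 1.5, between cycles. Runs used HBS-EP+ at 25 °C.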

[4] = target: T2, FcγRIIb extracellular domain with …; assay: SPR (Biacore), antibody captured on antigen peptide chip, FcγR as analyte; GpH7-A5/GpH7-B3/GpL16-k0 = 100
[5] = target: T4, FcγRIIIa extracellular domain with …; assay: as above

Binder | He/Con_1a (FcγRIa [1]) | He/Con_2b (FcγRIIb) | He_1a/2b (Ia/IIb) (FcγRIa [2]) | He_3a/2b (IIIa/IIb) [3] [ratio] | He/Con_2b (relative binding activity) [4] | He/Con_3a (relative binding activity) [5]
B1 | 101 % of control | 41.7 % of control | 2.42 |  |  | 
B2 | 96.2 % of control | 54.2 % of control | 1.78 |  |  | 
B3 | 107 % of control | 70.5 % of control | 1.52 |  |  | 
B4 | 105 % of control | 67.1 % of control | 1.57 |  |  | 
B5 | 109 % of control | 55.6 % of control | 1.95 |  |  | 
B6 |  |  |  | 1.28 | 77.4 % of control | 99.3 % of control
B7 | 105 % of control | 80.5 % of control | 1.3 |  |  | 
B8 | 101 % of control | 83.3 % of control | 1.21 |  |  | 
B9 |  |  |  | 1.31 | 103 % of control | 135 % of control
B10 |  |  |  | 1.37 | 53.9 % of control | 73.9 % of control
B11 |  |  |  | 1.33 | 66.8 % of control | 88.5 % of control
B12 |  |  |  | 1.21 | 68.6 % of control | 83 % of control
B13 |  |  |  | 1.24 | 83.5 % of control | 104 % of control
B14 | 106 % of control | 87.6 % of control | 1.21 |  |  | 
B15 | 91.5 % of control | 41.3 % of control | 2.22 |  |  | 
B16 | 96.5 % of control | 63.5 % of control | 1.52 |  |  | 
B17 | 102 % of control | 80.6 % of control | 1.27 |  |  | 

Binder | He/Con_1a (FcγRIa [1]) | He/Con_2b (FcγRIIb) | He_1a/2b (Ia/IIb) (FcγRIa [2]) | He_3a/2b (IIIa/IIb) [3] [ratio] | He/Con_2b (relative binding activity) [4] | He/Con_3a (relative binding activity) [5]
B18 | 108 % of control | 76.1 % of control | 1.41 |  |  | 
B19 | 103 % of control | 81.8 % of control | 1.26 |  |  | 
B20 |  |  |  | 1.28 | 74.5 % of control | 95.1 % of control
B21 | 103 % of control | 81.4 % of control | 1.26 |  |  | 
B22 |  |  |  | 1.43 | 63.1 % of control | 90.3 % of control
B23 |  |  |  | 1.53 | 55.6 % of control | 85.4 % of control
B24 | 105 % of control | 77.9 % of control | 1.35 |  |  | 
B25 | 97.7 % of control | 73.8 % of control | 1.24 |  |  | 
B26 |  |  |  | 1.69 | 48.4 % of control | 81.6 % of control
B27 | 106 % of control | 63.7 % of control | 1.67 |  |  | 
B28 | 106 % of control | 52.4 % of control | 2.01 |  |  | 
B29 | 96.6 % of control | 76.1 % of control | 1.27 |  |  | 
B30 | 107 % of control | 70.1 % of control | 1.53 |  |  | 
B31 | 103 % of control | 83.8 % of control | 1.23 |  |  | 
B32 |  |  |  | 1.43 | 73.6 % of control | 105 % of control
B33 | 102 % of control | 80.4 % of control | 1.27 |  |  | 
